Experimental data: US20140127759A1 (TORAY INDUSTRIES, published 2014)

What was measured:
[1] = molecular target: R170A/R220A/Y227F/E449R mutant β-glucosidase (Pyrococcus furiosus); experiment: gel filtration (Superdex 200), oligomeric state
[2] = molecular target: the molecule itself; experiment: blue-native PAGE, self-association
Procedure: Whether the parent β-glucosidase and our β-glucosidases, R170A mutant, R170A/R220A mutant, and R170A/R220A/Y227F mutant, form stable tetramers or not was investigated by blue-native PAGE.
In the blue-native PAGE, 3-12% Native-PAGE Bis-Tris Gel (Invitrogen Corporation) was used. Electrophoresis samples were prepared by dissolving 1 μg of each of the parent β-glucosidase, R170A mutant, R170A/R220A mutant, and R170A/R220A/Y227F mutant in a sample buffer (50 mM imidazole (pH 7.0), 50 mM NaCl, 5 mM 6-aminohexanoic acid, 0.5% Coomassie G250, and 0.5% DDM). NativeMark protein standard (Invitrogen Corporation) was used as molecular weight markers. In the electrophoresis, 50 mM Tricine, 7.5 mM imidazole (pH 7.0), and Coomassie G250 were added to […], whereas 25 mM imidazole (pH 7.0) was added to the cathode side. The electrophoresis was performed at a constant voltage of 150 V for 100 minutes. After fixation of bands, G-250 was decolorized.

[3] = molecular target: the molecule itself; experiment: gel filtration (Superdex 200), oligomeric state
Procedure: (§1) The molecular weights of the parent glucosidase and the mutants were determined by gel filtration using HiLood 26/60 Suuperdex 200 as the column, a 50 mM tris-hydrochloride (pH 8) and 150 mM sodium chloride as the buffer. The enzymes prepared in Example 2, Reference Example 1, and Example 9 were each added to the column and eluted with the buffer at a flow rate of 2 mL/min. The enzyme was detected by measuring absorbance at 280 nm. Ovoalbumin (44 kDa), conalbumin (75 kDa), aldolase (158 kDa), and ferritin (440 kDa) were used as molecular weight markers, and a calibration curve was drawn based on the elution time of each enzyme component. The molecular weights measured by gel filtration (observed molecular weights: kDa) and molecular weights estimated from the amino acid primary structures (estimated molecular weights: kDa) are summarized in Table 8.

[4] = molecular target: the molecule itself; experiment: gel filtration (Superdex 200), self-association
Procedure: as §1

Binder	Observed molecular weight (kDa) [3]	binding result [4]	further results
R170A/R220A/Y227F/E449R mutant β-glucosidase (enzyme) AKFPKNFMFGYSWSGFQFEMGLPGSEVESDWWVWVHDKENIASGLVSGDLPENGPAYWHLYKQDHDIAEKLGMDCIRGGIEWARIFPKPTFDVKVDVEKDEEGNIISVDVPESTIKELEKIANMEALEHYRKIYSDWKERGKTFILNLYHWPLPLWIHDPIAVRKLGPDAAPAGWLDEKTVVEFVKFAAFVAYHLDDLVDMWSTMNEPNVVYNQGYINLASGFPPGFLSFEAAEKAKFNLIQAHIGAYDAIKEYSEKSVGVIYAFAWHDPLAEEYKDEVEEIRKKDYEFVTILHSKGKLDWIGVNYYSRLVYGAKDGHLVPLPGYGFMSERGGFAKSGRPASDFGWEMYPEGLENLLKYLNNAYELPMIITENGMADAADRYRPHYLVSHLKAVYNAMKEGADVRGYLHWSLTDNYEWAQGFRMRFGLVYVDFETKKRYLRPSALVFRRIATQKEIPEELAHLADLKFVTRK	–	–	Observed molecular weight (kDa) [1]: 92 kDa
R170A mutant β-glucosidase (enzyme, start methionine not included in the entry) AKFPKNFMFGYSWSGFQFEMGLPGSEVESDWWVWVHDKENIASGLVSGDLPENGPAYWHLYKQDHDIAEKLGMDCIRGGIEWARIFPKPTFDVKVDVEKDEEGNIISVDVPESTIKELEKIANMEALEHYRKIYSDWKERGKTFILNLYHWPLPLWIHDPIAVRKLGPDAAPAGWLDEKTVVEFVKFAAFVAYHLDDLVDMWSTMNEPNVVYNQGYINLRSGFPPGYLSFEAAEKAKFNLIQAHIGAYDAIKEYSEKSVGVIYAFAWHDPLAEEYKDEVEEIRKKDYEFVTILHSKGKLDWIGVNYYSRLVYGAKDGHLVPLPGYGFMSERGGFAKSGRPASDFGWEMYPEGLENLLKYLNNAYELPMIITENGMADAADRYRPHYLVSHLKAVYNAMKEGADVRGYLHWSLTDNYEWAQGFRMRFGLVYVDFETKKRYLRPSALVFREIATQKEIPEELAHLADLKFVTRK	–	–	binding result [2]: binds
R170A/R220A/Y227F mutant β-glucosidase (enzyme, start methionine not included; Homodimer in crystal and by gel filtration; also called mutant (R170A/R220A/Y227F)) AKFPKNFMFGYSWSGFQFEMGLPGSEVESDWWVWVHDKENIASGLVSGDLPENGPAYWHLYKQDHDIAEKLGMDCIRGGIEWARIFPKPTFDVKVDVEKDEEGNIISVDVPESTIKELEKIANMEALEHYRKIYSDWKERGKTFILNLYHWPLPLWIHDPIAVRKLGPDAAPAGWLDEKTVVEFVKFAAFVAYHLDDLVDMWSTMNEPNVVYNQGYINLASGFPPGFLSFEAAEKAKFNLIQAHIGAYDAIKEYSEKSVGVIYAFAWHDPLAEEYKDEVEEIRKKDYEFVTILHSKGKLDWIGVNYYSRLVYGAKDGHLVPLPGYGFMSERGGFAKSGRPASDFGWEMYPEGLENLLKYLNNAYELPMIITENGMADAADRYRPHYLVSHLKAVYNAMKEGADVRGYLHWSLTDNYEWAQGFRMRFGLVYVDFETKKRYLRPSALVFREIATQKEIPEELAHLADLKFVTRK	129 kDa	–	–
R170A/R220A/Y227F/R448G mutant β-glucosidase (enzyme, start methionine not included; Estimated to be monomeric) AKFPKNFMFGYSWSGFQFEMGLPGSEVESDWWVWVHDKENIASGLVSGDLPENGPAYWHLYKQDHDIAEKLGMDCIRGGIEWARIFPKPTFDVKVDVEKDEEGNIISVDVPESTIKELEKIANMEALEHYRKIYSDWKERGKTFILNLYHWPLPLWIHDPIAVRKLGPDAAPAGWLDEKTVVEFVKFAAFVAYHLDDLVDMWSTMNEPNVVYNQGYINLASGFPPGFLSFEAAEKAKFNLIQAHIGAYDAIKEYSEKSVGVIYAFAWHDPLAEEYKDEVEEIRKKDYEFVTILHSKGKLDWIGVNYYSRLVYGAKDGHLVPLPGYGFMSERGGFAKSGRPASDFGWEMYPEGLENLLKYLNNAYELPMIITENGMADAADRYRPHYLVSHLKAVYNAMKEGADVRGYLHWSLTDNYEWAQGFRMRFGLVYVDFETKKRYLRPSALVFGEIATQKEIPEELAHLADLKFVTRK	63 kDa	no binding	–
parent β-glucosidase (Pyrococcus furiosus) (enzyme, Recombinant, expressed in E. coli; Homotetramer in crystal and in solution; also called wild-type; parent glucosidase) AKFPKNFMFGYSWSGFQFEMGLPGSEVESDWWVWVHDKENIASGLVSGDLPENGPAYWHLYKQDHDIAEKLGMDCIRGGIEWARIFPKPTFDVKVDVEKDEEGNIISVDVPESTIKELEKIANMEALEHYRKIYSDWKERGKTFILNLYHWPLPLWIHDPIAVRKLGPDRAPAGWLDEKTVVEFVKFAAFVAYHLDDLVDMWSTMNEPNVVYNQGYINLRSGFPPGYLSFEAAEKAKFNLIQAHIGAYDAIKEYSEKSVGVIYAFAWHDPLAEEYKDEVEEIRKKDYEFVTILHSKGKLDWIGVNYYSRLVYGAKDGHLVPLPGYGFMSERGGFAKSGRPASDFGWEMYPEGLENLLKYLNNAYELPMIITENGMADAADRYRPHYLVSHLKAVYNAMKEGADVRGYLHWSLTDNYEWAQGFRMRFGLVYVDFETKKRYLRPSALVFREIATQKEIPEELAHLADLKFVTRK	237 kDa	–	–
R170A/R220A/Y227F/R448E mutant β-glucosidase (enzyme, start methionine not included; Estimated to be monomeric) AKFPKNFMFGYSWSGFQFEMGLPGSEVESDWWVWVHDKENIASGLVSGDLPENGPAYWHLYKQDHDIAEKLGMDCIRGGIEWARIFPKPTFDVKVDVEKDEEGNIISVDVPESTIKELEKIANMEALEHYRKIYSDWKERGKTFILNLYHWPLPLWIHDPIAVRKLGPDAAPAGWLDEKTVVEFVKFAAFVAYHLDDLVDMWSTMNEPNVVYNQGYINLASGFPPGFLSFEAAEKAKFNLIQAHIGAYDAIKEYSEKSVGVIYAFAWHDPLAEEYKDEVEEIRKKDYEFVTILHSKGKLDWIGVNYYSRLVYGAKDGHLVPLPGYGFMSERGGFAKSGRPASDFGWEMYPEGLENLLKYLNNAYELPMIITENGMADAADRYRPHYLVSHLKAVYNAMKEGADVRGYLHWSLTDNYEWAQGFRMRFGLVYVDFETKKRYLRPSALVFEEIATQKEIPEELAHLADLKFVTRK	70 kDa	no binding	–
R170A/R220A mutant β-glucosidase (enzyme, start methionine not included; also called A170A/R220A mutant [sic]) AKFPKNFMFGYSWSGFQFEMGLPGSEVESDWWVWVHDKENIASGLVSGDLPENGPAYWHLYKQDHDIAEKLGMDCIRGGIEWARIFPKPTFDVKVDVEKDEEGNIISVDVPESTIKELEKIANMEALEHYRKIYSDWKERGKTFILNLYHWPLPLWIHDPIAVRKLGPDAAPAGWLDEKTVVEFVKFAAFVAYHLDDLVDMWSTMNEPNVVYNQGYINLASGFPPGYLSFEAAEKAKFNLIQAHIGAYDAIKEYSEKSVGVIYAFAWHDPLAEEYKDEVEEIRKKDYEFVTILHSKGKLDWIGVNYYSRLVYGAKDGHLVPLPGYGFMSERGGFAKSGRPASDFGWEMYPEGLENLLKYLNNAYELPMIITENGMADAADRYRPHYLVSHLKAVYNAMKEGADVRGYLHWSLTDNYEWAQGFRMRFGLVYVDFETKKRYLRPSALVFREIATQKEIPEELAHLADLKFVTRK	–	–	binding result [2]: binds
R170A/R220A/Y227F/E459G mutant β-glucosidase (enzyme, start methionine not included; Estimated to be monomeric) AKFPKNFMFGYSWSGFQFEMGLPGSEVESDWWVWVHDKENIASGLVSGDLPENGPAYWHLYKQDHDIAEKLGMDCIRGGIEWARIFPKPTFDVKVDVEKDEEGNIISVDVPESTIKELEKIANMEALEHYRKIYSDWKERGKTFILNLYHWPLPLWIHDPIAVRKLGPDAAPAGWLDEKTVVEFVKFAAFVAYHLDDLVDMWSTMNEPNVVYNQGYINLASGFPPGFLSFEAAEKAKFNLIQAHIGAYDAIKEYSEKSVGVIYAFAWHDPLAEEYKDEVEEIRKKDYEFVTILHSKGKLDWIGVNYYSRLVYGAKDGHLVPLPGYGFMSERGGFAKSGRPASDFGWEMYPEGLENLLKYLNNAYELPMIITENGMADAADRYRPHYLVSHLKAVYNAMKEGADVRGYLHWSLTDNYEWAQGFRMRFGLVYVDFETKKRYLRPSALVFREIATQKEIPEGLAHLADLKFVTRK	50 kDa	no binding	–
